T1: BAKΔTM (human, UniProt Q16611 1-186)
T1 chain: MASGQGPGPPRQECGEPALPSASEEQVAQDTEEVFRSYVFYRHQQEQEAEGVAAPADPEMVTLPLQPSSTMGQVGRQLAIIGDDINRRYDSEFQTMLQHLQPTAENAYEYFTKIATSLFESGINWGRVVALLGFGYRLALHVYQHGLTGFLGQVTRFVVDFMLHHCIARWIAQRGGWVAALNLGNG


Molecular target: T1, BAKΔTM
Assay: SPR

Binder | Kd
NLWAAQRYGRELRRMSDEFVDSFKK [BAD BH3 peptide] | > 10 µM
MEGSDALALRLACIGDEMDVSLRAPR [BIK BH3 peptide] | > 10 µM

From publication PMC7335050 (2020)
